Reference: article PMC3200346, “A Highly Stable Plastidic-Type Ferredoxin-NADP(H) Reductase in the Pathogenic Bacterium Leptospira interrogans” (PLoS ONE, 2011)

Assays:
[1] = biological target: Leptospira interrogans ferredoxin-NADP(H) reductase (L. interrogans)
[2] = biological target: Leptospira interrogans ferredoxin-NADP(H) reductase (L. interrogans); remark: listed apart in the source
[3] = biological target: T1, Pea leaf FNR (Lathyrus oleraceus, UniProt P10933); test: difference absorption spectroscopy; type: binding; details: read-out: K d ^NADP+ /
T1 construct: gene PETH; preparation of the assayed enzyme not described; monomeric FAD flavoprotein
T1 sequence (P10933 53-360): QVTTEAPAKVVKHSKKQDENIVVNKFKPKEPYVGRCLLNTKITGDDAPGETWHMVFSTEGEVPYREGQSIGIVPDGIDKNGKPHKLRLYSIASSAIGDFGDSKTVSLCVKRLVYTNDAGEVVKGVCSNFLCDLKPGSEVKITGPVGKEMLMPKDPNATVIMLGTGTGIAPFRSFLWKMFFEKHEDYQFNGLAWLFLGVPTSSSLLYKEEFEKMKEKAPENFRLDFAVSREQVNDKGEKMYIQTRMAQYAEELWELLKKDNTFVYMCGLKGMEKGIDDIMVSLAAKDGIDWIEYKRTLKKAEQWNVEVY
Text: difference absorption spectroscopy on Pea leaf FNR

[4] = biological target: T2, E. coli FNR (Escherichia coli, UniProt P28861); test: difference absorption spectroscopy; type: binding; details: read-out: K d ^NADP+ /
T2 construct: gene fpr; ferredoxin-NADP(H) reductase, not the FNR transcription regulator
T2 sequence (P28861 2-248): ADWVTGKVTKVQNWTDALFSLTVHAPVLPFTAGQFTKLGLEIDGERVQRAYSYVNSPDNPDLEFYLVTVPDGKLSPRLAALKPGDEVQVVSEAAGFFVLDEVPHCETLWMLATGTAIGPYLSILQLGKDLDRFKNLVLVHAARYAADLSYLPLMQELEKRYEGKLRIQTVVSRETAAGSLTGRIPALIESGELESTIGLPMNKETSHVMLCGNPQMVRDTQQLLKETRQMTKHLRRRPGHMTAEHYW
Text: difference absorption spectroscopy on E. coli FNR

[5] = biological target: T3, LepFNR (Leptospira interrogans, UniProt Q8EY89); test: difference absorption spectroscopy titration; type: binding
T3 construct: gene LA_4327; recombinant in E. coli BL21(DE3)pLysS, thioredoxin fusion (pET32JO-LepFNR) cut off by thrombin; monomeric FAD flavoprotein
Text: difference absorption spectroscopy titration on LepFNR

[6] = tested on: NC(=O)C1=CN([C@@H]2O[C@H](COP(=O)(O)OP(=O)(O)OC[C@H]3O[C@@H](n4cnc5c(N)ncnc54)[C@H](OP(=O)(O)O)[C@@H]3O)[C@@H](O)[C@H]2O)C=CC1; test: purified protein; details: 1 mM potassium ferricyanide, NADPH regenerating system, 50 mM Tris-HCl pH 8.0, 30 °C
[7] = biological target: T3, LepFNR; test: UV-visible spectrum; FAD fluorescence (release with urea); type: binding; details: noncovalently bound prosthetic group, 50 mM Tris-HCl pH 8.0, 25 °C
[8] = biological target: T2, E. coli FNR; test: UV-visible spectrum; type: binding; details: noncovalently bound prosthetic group
[9] = substrate: NC(=O)C1=CN([C@@H]2O[C@H](COP(=O)(O)OP(=O)(O)OC[C@H]3O[C@@H](n4cnc5c(N)ncnc54)[C@H](OP(=O)(O)O)[C@@H]3O)[C@@H](O)[C@H]2O)C=CC1; test: purified protein; type: biochemical, Lathyrus oleraceus; details: 1 mM potassium ferricyanide, NADPH regenerating system, 50 mM Tris-HCl pH 8.0, 30 °C
[10] = substrate: NC(=O)C1=CN([C@@H]2O[C@H](COP(=O)(O)OP(=O)(O)OC[C@H]3O[C@@H](n4cnc5c(N)ncnc54)[C@H](OP(=O)(O)O)[C@@H]3O)[C@@H](O)[C@H]2O)C=CC1; test: purified protein; type: biochemical, Escherichia coli; details: 1 mM potassium ferricyanide, NADPH regenerating system, 50 mM Tris-HCl pH 8.0, 30 °C

T3 sequence (Q8EY89 entry or part of it): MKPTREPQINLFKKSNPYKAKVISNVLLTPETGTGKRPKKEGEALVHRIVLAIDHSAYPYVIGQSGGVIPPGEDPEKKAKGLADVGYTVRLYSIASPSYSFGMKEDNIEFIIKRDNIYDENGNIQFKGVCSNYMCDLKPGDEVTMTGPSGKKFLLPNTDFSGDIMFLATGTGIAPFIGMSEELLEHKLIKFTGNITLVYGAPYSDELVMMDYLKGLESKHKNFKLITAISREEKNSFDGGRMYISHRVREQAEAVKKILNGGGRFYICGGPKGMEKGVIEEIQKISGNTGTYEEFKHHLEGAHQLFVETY

Pisum sativum leaf ferredoxin (from UniProt P09911 53-149) (natural protein)
NADPH-cytochrome c reductase activity of LepFNR with P. sativum leaf ferredoxin; the reaction was linear with pea leaf ferredoxin up to 70 µM, no kinetic parameters determined [1]: 2.5 s⁻¹

Leptospira interrogans LB107 [4Fe-4S] ferredoxin (natural protein)
NADPH-cytochrome c reductase activity of LepFNR with LB107 ferredoxin under anaerobic conditions at different pH values; maximal specific activity at pH 6.5, lower at higher pH [2]: 6.13 µmol/min/mg

NC(=O)c1ccc[n+]([C@@H]2O[C@H](COP(=O)(O)OP(=O)(O)OC[C@H]3O[C@@H](n4cnc5c(N)ncnc54)[C@H](OP(=O)(O)O)[C@@H]3O)[C@@H](O)[C@H]2O)c1 [NADP^+]
Kd [3]: 11.3 ± 2.1 µM | Kd [4]: 7.6 ± 2.2 µM | Kd [5]: 13.2 ± 3.1 µM

LepFNR (Leptospira interrogans serovar Lai str. 56601)
Km [6]: 14.5 ± 1.7 µM | kcat [6]: 258 ± 13.7 s⁻¹ | kcat/Km [6]: 1.78e+07 M⁻¹ s⁻¹

Cc1cc2nc3c(=O)[nH]c(=O)nc-3n(C[C@H](O)[C@H](O)[C@H](O)COP(=O)(O)OP(=O)(O)OC[C@H]3O[C@@H](n4cnc5c(N)ncnc54)[C@H](O)[C@@H]3O)c2cc1C [FAD]
UV-visible spectrum; FAD fluorescence (release with urea) [7]: the prosthetic group remains bound to the enzyme | UV-visible spectrum [8]: spectra of the pea leaf FNR, E. coli FNR and LepFNR, all essentially in oxidized states

B1: Pea leaf FNR (Lathyrus oleraceus) (protein)
chain: QVTTEAPAKVVKHSKKQDENIVVNKFKPKEPYVGRCLLNTKITGDDAPGETWHMVFSTEGEVPYREGQSIGIVPDGIDKNGKPHKLRLYSIASSAIGDFGDSKTVSLCVKRLVYTNDAGEVVKGVCSNFLCDLKPGSEVKITGPVGKEMLMPKDPNATVIMLGTGTGIAPFRSFLWKMFFEKHEDYQFNGLAWLFLGVPTSSSLLYKEEFEKMKEKAPENFRLDFAVSREQVNDKGEKMYIQTRMAQYAEELWELLKKDNTFVYMCGLKGMEKGIDDIMVSLAAKDGIDWIEYKRTLKKAEQWNVEVY
notes: preparation of the assayed enzyme not described; monomeric FAD flavoprotein
Km [9]: 15.0 ± 1.6 µM | kcat [9]: 325 ± 16.5 s⁻¹ | kcat/Km [9]: 2.17e+07 M⁻¹ s⁻¹

B2: E. coli FNR (Escherichia coli K-12) (protein)
chain: ADWVTGKVTKVQNWTDALFSLTVHAPVLPFTAGQFTKLGLEIDGERVQRAYSYVNSPDNPDLEFYLVTVPDGKLSPRLAALKPGDEVQVVSEAAGFFVLDEVPHCETLWMLATGTAIGPYLSILQLGKDLDRFKNLVLVHAARYAADLSYLPLMQELEKRYEGKLRIQTVVSRETAAGSLTGRIPALIESGELESTIGLPMNKETSHVMLCGNPQMVRDTQQLLKETRQMTKHLRRRPGHMTAEHYW
notes: ferredoxin-NADP(H) reductase, not the FNR transcription regulator
Km [10]: 8.3 ± 0.5 µM | kcat [10]: 38.2 ± 2.3 s⁻¹ | kcat/Km [10]: 5e+06 M⁻¹ s⁻¹
